The results in this text go back to patent US20150104459A1.

Changes are numbered by the printed parent chain.

In test [1] the target is recombinant soluble homotrimeric HA, A/common magpie/Hong Kong/5052/07 (H5N1) (influenza A virus A/common magpie/Hong Kong/5052/2007 (H5N1)). Description: microarray, trimeric HA, transfection supernatant. As to conditions: remark: other sources report otherwise.
Test [2] has as its target recombinant soluble homotrimeric HA of A/common magpie/Hong Kong/5052/07 (H5N1) (Influenza A virus A/common magpie/Hong Kong/5052/2007 (H5N1)). As to the kind of experiment: HA microarray, BCC supernatant. As to conditions: remark: other sources report otherwise.

B1: TCN-550 (5096_F06) (antibody, V domains shown)
VH: QVQLQESGPGLVKPSETLSLTCTVSGASINSHYWSWIRQPPGKGLEWIGYVYYSGSTTYNPSLKSRVTLSVDTSKNQFSLNLSSVTAADTAFYYCARHPYDVLTGSGDWFDPWGQGTLVTVSS
VL: SYVLTQAPSVSVAPGQTARITCGGNAIGSKKVHWYQHKAGQAPVLVVYDDTDRPSGIPERFSGSNSWSTATLTINRVEAGDEADYYCQVWDFTIDHVVFGGGTKLTVL
Turning to B1, the Trimeric HA Binding RLU in test [1] was determined as 993 RLU.

B2: TCN-535 (5246_P19) (antibody, V domains shown)
VH: QVQLVQSGSEVKKPGTSVKVSCTASGSVFTNYGISWVRQAPGQGLEWMGGIIPLFGAAKYAQKFQGRVTITADESTKTVYMELSRLTSKDTAIYFCAKAPRVYEYYFDQWGQGTPVTVSS
VL: EIVLTQSPGTLSLSPGERATLSCRASQSVSSSQLAWYQQKPGQAPRLIIYGASTRATGIPDRFSGSGSGTDFTLTIGRLEPEDFAVFFCQQYSTSPPTFGQGTKVDFK
As for B2, the Trimeric HA Binding RLU in test [2] is 45900 RLU; in test [1] it was 477 RLU.

B3: TCN-521 (3280_D18) (antibody, V domains shown)
VH: EVQLVQSGGGLVQPGGSLRLACVVSGFTVTSNYITWVRQAPGKGLEWVSVIYSHGRAYYSASVNGRFTISRHTSKNTVYLEMNSLRPEDTAVYYCAGGGLVGGYDEYFFDYWGQGTLATVSS
VL: ETVLTQSPGTLSLTPGERATLSCRVGQSVSGSHLAWYQQKPGQAPRLLIYGASSRATGIPDRFGGSVSGTDFTLTISRLEPEDSAVYYCQQYGDSRYTFGQGTKLEIK
Turning to B3, the Trimeric HA Binding RLU in test [2] was found to be 13500 RLU.

B4: TCN-537 (3194_D21) (antibody, V domains shown)
VH: QVQLQQWGSGLLKPSETLSLTCAVYGGSFRDDYWTWIRQPPGKGLEWIGEINHSGRTNYNPSLKSRVTISVDTSLKQFSLKVISVTAADTAVYYCARGTSHVSRYFDWLPPTNWFDPWGQGTQVTVSS
VL: DIVLTQSPGTLSLSPGERATLSCRASQSVSSSYLAWYQQKPGQAPRLVMYGAATRATGIPDRFSGSGSGPDFTLTISRLEPEDFAMYYCQQYGNSPITFGQGTRLEIK
In the case of B4, the Trimeric HA Binding RLU came out at 18700 RLU in test [2] and 2070 RLU in test [1].

B5: TCN-538 (3206_O17) (antibody, V domains shown)
VH: QITLKESGPTLVKPTQTLTLTCVFSGFSLSITGVRVGWIRQPPGKALEWLALISWDDEKHYSPSLQSRLTITKDTSKNQVVLTMTNLDPVDTATYYCARSTDRGHVLRYFGWMLPGDAFDVWGQGTMVTVSS
VL: DIVMTQSPDFLPVSLGERATINCKSSQRVLYSSNNKNYLAWYQLKPGQPPKLIIYWASTRESGVPDRFSGSGSGTEFTLTISSLQAEDVAVYYCQQYYSRPYTFGQGTKLEIK
On to B5, for which the Trimeric HA Binding RLU came out at 18700 RLU in test [2] and 3140 RLU in test [1].

B6: TCN-552 (5249_I23) (antibody, V domains shown)
VH: QVQVVQSGAEVKKPGSSVRVSCQASGGTFMNYAIIWVRRAPGQGLEWMGGIIPVFPTPNYAQMFQGRVTISTDESRSTSFLELTNLRYEDTAVYYCARRIYHGGNSGFDFWGQGTLVTVSS
VL: EIVLTQSPATLSLSPGERATLSCRASQSVGNYLAWYQQKPGQAPRLLIYDSSNRAPGIPARFSGSGSGTDFTLTISSLAPEDFAVYYCQQRSKWPPMYSFGHGTKLEIK
Regarding B6, the Trimeric HA Binding RLU in test [2] was 42200 RLU; in test [1] it was 34600 RLU.

B7: TCN-543 (5081_G23) (antibody, V domains shown)
VH: QVHLVQSGAEVRKPGDSVKVSCKTSGYTFSTYPVAWVRQVPGQGLEWMGWISTYNGNTNFAQNFQGRVTLTTDTTTNTAYMEVRSLKFDDTAVYYCARVEGSYRDFWNNQNRFDPWGQGTLVTVSS
VL: SYVLTQPPSVSVAPGQTARISCGGSNIGGKSVHWYQQKPGQAPVLVVYDDSGRPSGIPERFSGSNSGDTATLTISRVEAGDEADYFCQVWDNFGGVFGTGTKVTVL
As for B7, the Trimeric HA Binding RLU in test [1] was found to be 1070 RLU.

B8: TCN-545 (5082_I15) (antibody, V domains shown)
VH: QVQLQQWGAGLLKPSETLSLSCAVFGGSFSDYYWTWIRQPPGKGLEWIGEIKHSGRTNYNPSLESRVTISVDTSKNQFSLKLSSVTAADTAIYYCARGTDPDTEGYCRSGSCSAFDFWGQGTLVTVSS
VL: EIVLTQSPGTLSLSPGERATLSCRASHFVNYRSLAWYQQTPGQVPRLLIYGASTRATGIPDRFSGSGSGTDFTLTISRLEPEDFAVYFCQQYGGSPRYTFGQGTRLEIK
For the molecule B8, in test [1], the Trimeric HA Binding RLU amounted to 1390 RLU.

B9: TCN-553 (5261_C18) (antibody, V domains shown)
VH: QVQVVQSGTEVKKPGSSVKVSCQTSGGRFMSYAITWVRQAPGQGLEWMGGIVPVFGTANYAQKFQGRVTITTDDSTRTAYMELSSLRSEDTAVYYCGFRYGSGYGFDSWGQGTLVTVSS
VL: EIVLTQSPGTLSLSPGERATLSCRASQSVSSSYLAWYQKKPGQAPRLLIYGASTRATGIPDRFTGSGSGTDFTLSISRLEPEDFAVYYCQHFGTSVFTFGGGTKVEIK
With B9, the Trimeric HA Binding RLU in test [2] was 26000 RLU; in test [1] it was 39200 RLU.

B10: TCN-534 (5249_B02) (antibody, V domains shown)
VH: QVQLVQSGAEVKKPGSSVKVSCRESGGTFNGYTITWVRQAPGQGLEWMGGIIPMMGTVNYAQKLQGRVTITTDYFTKTAYMDLNNLRSEDTAMYYCVKIRYTGQQLLWGQGTLVTVSS
VL: DIQMTQSPSTLSASIGDRVTITCRASQSIASWLAWYQQKPGKAPKLLIYEAVNLESGVPSRFSGSGSGTDFTLTISSLQPDDFATYFCQHYGTISQTFGGGTKVEIK
Take B10: the Trimeric HA Binding RLU in test [2] was 32500 RLU.

B11: TCN-530 (5248_H10a) (antibody, V domains shown)
VH: QVQLVQSGAEVRKPGSSVKVSCKASGGPFMSYAIGWVRQAPGQGLEWMGGINPVFGRPHYAQKFQGRVTIATDDSTKTSYMELSSLTSEDTGMYYCASRYSRSSPGTFESWGQGTLVTVSS
VL: EIVMTQFPATLSVSPGERVTLSCRASQSVSNNLAWYQQKPGQPPRLLIYDASTRATGVPAKFSGTGSGTEFTLSISSLQSEDFAVYYCQQYHNWPPSYSFGLGTKLEIK
Take B11: in test [2], the Trimeric HA Binding RLU stood at 42500 RLU.

B12: TCN-557 (5081_A04) (antibody, V domains shown)
VH: QVQLVQSGAEVKKPGASVKVSCKASGHTFTGYYIHWVRQAPGQGLEWMGWINPDSGATSSAQNFQGRVTMTGDTSSSTAYMELSRLSFDDTAVYYCARVLFTSPFDFWGEGTLVTVSS
VL: QAVVTQEPSLAVSPGGTVTLTCGSSTGAVTRGHYPYWFQQKPGQAPRALIYDSAGNRHSWTPARFSGSLLGGKAALTLSGAQPEDEAEYYCLLSYSGVWVFGGGTKLTVL
B12: the Trimeric HA Binding RLU in test [1] came to 54900 RLU.

B13: TCN-542 (5079_A16) (antibody, V domains shown)
VH: QVQLQESGPGLVKPSQTLSLTCTVSGGSISSGNYYWNWVRQHPGKGLEWIGYIYYRGSTFYNPSLKSRVTISIDTSKNQFSLRLSSVTAADTAVYYCAKDTRSSLDNYQYGMDVWGQGTTVTVSS
VL: QTVVTQEPSLTVSPGGTVTLTCASSTGAVTSSYFPNWFQQKPGQAPRPLIYSTTIRHSWTPARFSGSLLGGKAALTLSGVQPEDEADYYCLLYSGGDPVAFGGGTKLTVL
On to B13, for which the Trimeric HA Binding RLU in test [1] turned out to be 1670 RLU.

B14: TCN-533 (5256_A17) (antibody, V domains shown)
VH: QVQLVQSGADVKKPGSSVTVSCKASGGSFSNYGINWVRQAPGQGLEWMGGIIPLINAPNYAPKFQGRVTITADMFSNIVSLQLTSLRTDDTAVYYCARRKMTTAIDYWGQGTLVTVSS
VL: QPVLSQPPSASASLGASVTLTCTLSSGFDNYQVAWYQQRPGKGPRFVMRVGNGGNVASKGDGIPDRFSVSGSGLNRYLTIKNIQEDDESDYYCGADHGSGNNFVSPYVFGGGTKLTVL
For B14, in test [2], the Trimeric HA Binding RLU is 44500 RLU.

B15: TCN-555 (5246_L16) (antibody, V domains shown)
VH: QVQLVQSGAEVKRPGSSVKVSCTASGGIFRKNAISWVRQAPGQGLEWMGGIIAVFNTANYAQKFQNRVKITADESGNTAYMELSSLTSDDTAVYYCASHPKYFYGSGSYPDFWGQGTLVTVSS
VL: QSALTQPRSVSGSPGQSITISCTGGSSDIGASNSVSWYQQHPGKAPKLVIFDVTERPSGVPHRFSGSKSGNTASLTVSGLQPDDEADYFCCAYGGKYLVVFGGGTKVTVL
For B15, the Trimeric HA Binding RLU in test [2] was determined as 16100 RLU; in test [1], 33600 RLU.

B16: TCN-563 (5237_B21) (antibody, V domains shown)
VH: B15 VH with V5A, N66G, T87R
VL: B15 VL with I18V, G25S, I29V, F51Y, D83E
Regarding B16, the Trimeric HA Binding RLU in test [2] was found to be 27500 RLU.

B17: TCN-551 (5243_D01) (antibody, V domains shown)
VH: EVQLVQSGSEVKKPGESLKISCKGSGYSFSNYWIGWVRHMPGKGLEWMGIIYPGDSDTRYSPSFQGQVTMSADKSSSTVYLQWSSLKASDTAIYYCARRGGHSFGYGSGGDTHSEFDSWGQGTLVTVSS
VL: QSVLTQSPSVSAAPGQKVTISCSGSDSNIGDYFVCWYQHLPGKPPQLLIYENNKRPSGIPDRFSGSKSGTSATLGITGIQTGDEADYYCATWDGSLSAWVFGGGTKLTVL
For the molecule B17, the Trimeric HA Binding RLU in test [2] worked out at 45700 RLU.

B18: TCN-546 (5089_L08) (antibody, V domains shown)
VH: QVQLQQWGAGLLKPSETLSLTCGVYGGSLSDYYWSWIRQPPGKGLEWIGEINHSGGTNYNPSLKRRVTISVDTSKKQFSLKMNSVTAADTAVYYCARGTDPDTEVYCRAGNCAAFDFWGQGTLVTVSS
VL: EIVLTQSPGTLSLSPGERATLSCRASHFVIGRAVAWYQQKPGQAPRLLIYGASSRATGIPDRFSGSGSGTDFTLTISRLETEDFAVFYCQHYGSSPRYAFGQGTKLEIK
As for B18, the Trimeric HA Binding RLU in test [1] is 1920 RLU.

B19: TCN-540 (5060_F05) (antibody, V domains shown)
VH: QVQLVQSGGGVVQPGRSLRLSCAASGFTFSSYAMHWVRQAPGKGLEWVAIISYDGNDQYYTDSVKGRFTISRDSSKVYLQMHRLRPEDTAVYYCAKEFETSGYFHGSFDYWGQGILVTVSS
VL: QSALTQPASVSGSPGQSITISCTGTSSDVGGYNYVSWYQQHPGKAPKLLIYEVTNWPSGVSNRFSGSKSGNTASLTISGLQAEDEADYYCSSYAGSSTWVFGGGTRVTVL
Regarding B19, the figures for the Trimeric HA Binding RLU in test [2] and in test [1] were 113 RLU and 1800 RLU, respectively.

B20: TCN-523 (5248_A17) (antibody, V domains shown)
VH: QVQLVQSGAEVKKPGSSVKVSCKASGGSFSNYAFSWVRQAPGQGLEWMGGTIPLLGTTNYAQKFQGRVTISADQFTSTAYMELGSLRSEDTAVYYCTRRKMTTAFDSWGQGTLVTVSS
VL: QPVLTQPPSASASLGASVTLTCTLSSAYSNYKVDWYQQRPGKGPRFVMRVGTGGIVGSKGDGIPDRFSVLGSGLNRYLTIKNIQEEDESDYHCGADHGSGSNFVSPYVFGGGTKLTVL
In the case of B20, in test [2], the Trimeric HA Binding RLU was 45800 RLU.
